According to the supplement of paper PMC5998384:

Assays:
HeLa Kyoto [1] = test: thermal stability score vs G1/S (z-score of summed log2 fold changes over temperatures); higher = more thermally stable than in G1/S
HeLa Kyoto [2] = test: solubility in G1/S (NP-40 vs SDS abundance) (log2 ratio); higher = more soluble; conditions: cell cycle stage: G1/S
HeLa Kyoto [3] = test: solubility change mitosis vs G1/S (difference of NP-40 vs SDS log2 ratios) (log2 ratio difference); higher = more soluble in mitosis
[4] = cell cycle stage: early G1 (4.5 h after nocodazole release)
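Throughout, for solubility change mitosis vs G1/S (difference of NP-40 vs SDS log2 ratios): synchronized HeLa Kyoto cells (double thymidine block for G1/S, nocodazole release for mitosis), protein amounts in NP-40 versus SDS lysates quantified by mass spectrometry, three biological replicates.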
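Throughout, for solubility in G1/S (NP-40 vs SDS abundance): HeLa Kyoto cells arrested at G1/S by double thymidine block, proteins quantified by TMT10plex mass spectrometry in mild NP-40 versus SDS extracts, three biological replicates.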
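Throughout, for thermal stability score vs G1/S (z-score of summed log2 fold changes over temperatures): synchronized HeLa Kyoto cells, proteins quantified by TMT10plex mass spectrometry, three biological replicates, mitosis taken 0.5 h after nocodazole release, G1/S directly after double thymidine block.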

SOX13, sequence (chain, as listed by the source): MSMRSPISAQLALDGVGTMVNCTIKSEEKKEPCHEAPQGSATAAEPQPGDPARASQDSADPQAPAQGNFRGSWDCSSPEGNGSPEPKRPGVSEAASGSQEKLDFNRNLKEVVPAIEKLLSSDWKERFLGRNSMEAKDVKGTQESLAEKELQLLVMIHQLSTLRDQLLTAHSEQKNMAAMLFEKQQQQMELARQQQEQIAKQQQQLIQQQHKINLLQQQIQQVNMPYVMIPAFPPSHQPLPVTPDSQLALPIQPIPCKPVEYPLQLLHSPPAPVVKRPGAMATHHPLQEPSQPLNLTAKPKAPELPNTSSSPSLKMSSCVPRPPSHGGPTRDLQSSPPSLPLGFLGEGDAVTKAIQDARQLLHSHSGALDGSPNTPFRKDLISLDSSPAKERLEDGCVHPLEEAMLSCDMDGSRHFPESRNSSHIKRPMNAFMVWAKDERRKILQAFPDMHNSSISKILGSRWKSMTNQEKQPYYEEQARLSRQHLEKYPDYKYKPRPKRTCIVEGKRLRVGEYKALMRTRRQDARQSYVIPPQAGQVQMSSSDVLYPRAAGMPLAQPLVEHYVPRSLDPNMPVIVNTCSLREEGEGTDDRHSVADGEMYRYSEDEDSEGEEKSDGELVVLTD

Substance	thermal stability score (HeLa Kyoto [1]; [4])	thermal stability score (HeLa Kyoto [1]; cell cycle stage: mitosis)	solubility in G1/S (log2) (HeLa Kyoto [2])	solubility change mitosis (log2) (HeLa Kyoto [3])
MDEETRHSLECIQANQIFPRKQLIREDENLQVPFLELHGESTEFVGRAEDAIIALSNYRLHIKFKESLVNVPLQLIESVECRDIFQLHLTCKDCKVIRCQFSTFEQCQEWLKRLNNAIRPPAKIEDLFSFAYHAWCMEVYASEKEQHGDLCRPGEHVTSRFKNEVERMGFDMNNAWRISNINEKYKLCGSYPQELIVPAWITDKELESVSSFRSWKRIPAVIYRHQSNGAVIARCGQPEVSWWGWRNADDEHLVQSVAKACASDSRSSGSKLSTRNTSRDFPNGGDLSDVEFDSSLSNASGAESLAIQPQKLLILDARSYAAAVANRAKGGGCECPEYYPNCEVVFMGMANIHSIRRSFQSLRLLCTQMPDPGNWLSALESTKWLHHLSVLLKSALLVVHAVDQDQRPVLVHCSDGWDRTPQIVALAKLLLDPYYRTIEGFQVLVEMEWLDFGHKFADRCGHGENSDDLNERCPVFLQWLDCVHQLQRQFPCSFEFNEAFLVKLVQHTYSCLFGTFLCNNAKERGEKHTQERTCSVWSLLRAGNKAFKNLLYSSQSEAVLYPVCHVRNLMLWSAVYLPCPSPTTPVDDSCAPYPAPGTSPDDPPLSRLPKTRSYDNLTTACDNTVPLASRRCSDPSLNEKWQEHRRSLELSSLAGPGEDPLSADSLGKPTRVPGGAELSVAAGVAEGQMENILQEATKEESGVEEPAHRAGIEIQEGKEDPLLEKESRRKTPEASAIGLHQDPELGDAALRSHLDMSWPLFSQGISEQQSGLSVLLSSLQVPPRGEDSLEVPVEQFRIEEIAEGREEAVLPIPVDAKVGYGTSQSCSLLPSQVPFETRGPNVDSSTDMLVEDKVKSVSGPQGHHRSCLVNSGKDRLPQTMEPSPSETSLVERPQVGSVVHRTSLGSTLSLTRSPCALPLAECKEGLVCNGAPETENRASEQPPGLSTLQMYPTPNGHCANGEAGRSKDSLSRQLSAMSCSSAHLHSRNLHHKWLHSHSGRPSATSSPDQPSRSHLDDDGMSVYTDTIQQRLRQIESGHQQEVETLKKQVQELKSRLESQYLTSSLHFNGDFGDEVTSIPDSESNLDQNCLSRCSTEIFSEASWEQVDKQDTEMTRWLPDHLAAHCYACDSAFWLASRKHHCRNCGNVFCSSCCNQKVPVPSQQLFEPSRVCKSCYSSLHPTSSSIDLELDKPIAATSN [MTMR3]	-0.332	-0.143	-0.000164	-0.15
MAPARLFALLLFFVGGVAESIRETEVIDPQDLLEGRYFSGALPDDEDVVGPGQESDDFELSGSGDLDDLEDSMIGPEVVHPLVPLDNHIPERAGSGSQVPTEPKKLEENEVIPKRISPVEESEDVSNKVSMSSTVQGSNIFERTEVLAALIVGGIVGILFAVFLILLLMYRMKKKDEGSYDLGKKPIYKKAPTNEFYA [SDC4]	2.66	4.92	-0.523	0.235
SOX13	0.734	0.151	0.191	0.0877
MAKREDSPGPEVQPMDKQFLVCSICLDRYQCPKVLPCLHTFCERCLQNYIPAQSLTLSCPVCRQTSILPEQGVSALQNNFFISSLMEAMQQAPDGAHDPEDPHPLSVVAGRPLSCPNHEGKTMEFYCEACETAMCGECRAGEHREHGTVLLRDVVEQHKAALQRQLEAVRGRLPQLSAAIALVGGISQQLQERKAEALAQISAAFEDLEQALQQRKQALVSDLETICGAKQKVLQSQLDTLRQGQEHIGSSCSFAEQALRLGSAPEVLLVRKHMRERLAALAAQAFPERPHENAQLELVLEVDGLRRSVLNLGALLTTSATAHETVATGEGLRQALVGQPASLTVTTKDKDGRLVRTGSAELRAEITGPDGTRLPVPVVDHKNGTYELVYTARTEGELLLSVLLYGQPVRGSPFRVRALRPGDLPPSPDDVKRRVKSPGGPGSHVRQKAVRRPSSMYSTGGKRKDNPIEDELVFRVGSRGREKGEFTNLQGVSAASSGRIVVADSNNQCIQVFSNEGQFKFRFGVRGRSPGQLQRPTGVAVDTNGDIIVADYDNRWVSIFSPEGKFKTKIGAGRLMGPKGVAVDRNGHIIVVDNKSCCVFTFQPNGKLVGRFGGRGATDRHFAGPHFVAVNNKNEIVVTDFHNHSVKVYSADGEFLFKFGSHGEGNGQFNAPTGVAVDSNGNIIVADWGNSRIQVFDSSGSFLSYINTSAEPLYGPQGLALTSDGHVVVADAGNHCFKAYRYLQ [TRIM3]	0.13	0.0555	-0.0387	-0.138
BLM	-0.277	-0.894	-0.848	0.632
MDGLRQRVEHFLEQRNLVTEVLGALEAKTGVEKRYLAAGAVTLLSLYLLFGYGASLLCNLIGFVYPAYASIKAIESPSKDDDTVWLTYWVVYALFGLAEFFSDLLLSWFPFYYVGKCAFLLFCMAPRPWNGALMLYQRVVRPLFLRHHGAVDRIMNDLSGRALDAAAGITRNVLQVLARSRAGITPVAVAGPSTPLEADLKPSQTPQPKDK [REEP6]	0.664	-0.943	-0.206	-0.143
TNS1	0.323	1.79	-0.0779	0.117
MPGPQGGRGAATMSLGKLSPVGWVSSSQGKRRLTADMISHPLGDFRHTMHVGRGGDVFGDTSFLSNHGGSSGSTHRSPRSFLAKKLQLVRRVGAPPRRMASPPAPSPAPPAISPIIKNAISLPQLNQAAYDSLVVGKLSFDSSPTSSTDGHSSYGLDSGFCTISRLPRSEKPHDRDRDGSFPSEPGLRRSDSLLSFRLDLDLGPSLLSELLGVMSLPEAPAAETPAPAANPPAPTANPTGPAANPPATTANPPAPAANPSAPAATPTGPAANPPAPAASSTPHGHCPNGVTAGLGPVAEVKSSPVGGGPRGPAGPALGRHWGAGWDGGHHYPEMDARQERVEVLPQARASWESLDEEWRAPQAGSRTPVPSTVQANTFEFADAEEDDEVKV [CDC42EP1]	-0.817	-1.35	0.536	0.0734
MEEGKMDENEWGYHGEGNKSLVVAHAQRCVVLRFLKFPPNRKKTSEEIFQHLQNIVDFGKNVMKEFLGENYVHYGEVVQLPLEFVKQLCLKIQSERPESRCDKDLDTLSGYAMCLPNLTRLQTYRFAEHRPILCVEIKPKCGFIPFSSDVTHEMKHKVCRYCMHQHLKVATGKWKQISKYCPLDLYSGNKQRMHFALKSLLQEAQNNLKIFKNGELIYGCKDARSPVADWSELAHHLKPFFFPSNGLASGPHCTRAVIRELVHVITRVLLSGSDKGRAGTLSPGLGPQGPRVCEASPFSRSLRCQGKNTPERSGLPKGCLLYKTLQVQMLDLLDIEGLYPLYNRVERYLEEFPEERKTLQIDGPYDEAFYQKLLDLSTEDDGTVAFALTKVQQYRVAMTAKDCSIMIALSPCLQDASSDQRPVVPSSRSRFAFSVSVLDLDLKPYESIPHQYKLDGKIVNYYSKTVRAKDNAVMSTRFKESEDCTLVLHKV [IPPK]	0.519	1.21	-0.275	-0.0236
MAADVVGDVYVLVEHPFEYTGKDGRRVAIRPNERYRLLRRSTEHWWHVRREPGGRPFYLPAQYVRELPALGNPAAAAPPGPHPSPAAPEPLAYDYRFVSAAATAGPDGAPEESGGRASSLCGPAQRGAATQRSSLAPGLPACLYLRPAAPVRPAQSLNDLACAAVSPPAGLLGSSGSFKACSVAGSWVCPRPLARSDSENVYEVIQDLHVPPPEESAEQVDDPPEPVYANIERQPRATSPGAAAAPLPSPVWETHTDAGTGRPYYYNPDTGVTTWESPFEAAEGAASPATSPASVDSHVSLETEWGQYWDEESRRVFFYNPLTGETAWEDEAENEPEEELEMQPGLSPGSPGDPRPPTPETDYPESLTSYPEEDYSPVGSFGEPGPTSPLTTPPGWSCHVSQDKQMLYTNHFTQEQWVRLEDPHGKPYFYNPEDSSVRWELPQVPVPAPRSIHKSSQDGDTPAQASPPEEKVPAELDEVGSWEEVSPATAAVRTKTLDKAGVLHRTKTADKGKRLRKKHWSASWTVLEGGVLTFFKDSKTSAAGGLRQPSKFSTPEYTVELRGATLSWAPKDKSSRKNVLELRSRDGSEYLIQHDSEAIISTWHKAIAQGIQELSAELPPEESESSRVDFGSSERLGSWQEKEEDARPNAAAPALGPVGLESDLSKVRHKLRKFLQRRPTLQSLREKGYIKDQVFGCALAALCERERSRVPRFVQQCIRAVEARGLDIDGLYRISGNLATIQKLRYKVDHDERLDLDDGRWEDVHVITGALKLFFRELPEPLFPFSHFRQFIAAIKLQDQARRSRCVRDLVRSLPAPNHDTLRMLFQHLCRVIEHGEQNRMSVQSVAIVFGPTLLRPEVEETSMPMTMVFQNQVVELILQQCADIFPPH [ARHGAP27]	2.18	0.927	0.0968	-0.164
MDSSAVITQISKEEARGPLRGKGDQKSAASQKPRSRGILHSLFCCVCRDDGEALPAHSGAPLLVEENGAIPKQTPVQYLLPEAKAQDSDKICVVIDLDETLVHSSFKPVNNADFIIPVEIDGVVHQVYVLKRPHVDEFLQRMGELFECVLFTASLAKYADPVADLLDKWGAFRARLFRESCVFHRGNYVKDLSRLGRDLRRVLILDNSPASYVFHPDNAVPVASWFDNMSDTELHDLLPFFEQLSRVDDVYSVLRQPRPGS [CTDSP1]	0.748	0.982	-0.148	-0.0207
